Reference: patent US20160205946A1, “ENZYMATIC IN SITU PREPARATION OF PERACID-BASED REMOVABLE ANTIMICROBIAL COATING COMPOSITIONS AND METHODS OF USE” (THE CHEMOURS COMPANY FC, LLC, priority 2009, published 2016)

Experiment: pNPA microplate assay (enzyme specific activity)
Type: biochemical
Conditions: 30 °C, pH 7.2
Method: Into each of four wells of a 96-well microplate were added 170 μL of potassium phosphate buffer (50 mM, pH 7.2) and either 10 μL of 0.1 mg total protein/mL of cell lysate, or 10 μL of 0.02 mg total protein/mL of a spray-dried enzyme solution. The plate was covered and placed in a microplate reader (Molecular Devices SPECTRAmax® 384 Plus), then mixed for several seconds and equilibrated at 30° C. for 10 minutes. To each well of the plate was then simultaneously added 20 μL of a 30 mM pNPA solution prepared by mixing (immediately prior to use) 0.6 mL of 100 mM pNPA in acetonitrile with 1.4 mL of 50 mM potassium phosphate buffer (pH 7.2). The change in absorbance at 400 nm was measured over 1 minute of reaction time. The background rate of pNPA hydrolysis (subtracted from the rate of hydrolysis measured in the presence of enzyme) was separately measured in four wells by substituting 10 μL/well of potassium phosphate buffer (50 mM, pH 7.2) for cell lysate or enzyme-containing solution. The extinction coefficient for para-nitrophenol, measured at pH 7.2 in a 1-cm path length cell, was 10,909 L·cm^−1·mol^−1. One pNPA Unit of enzyme activity is equivalent to the amount of protein that catalyzes the hydrolysis of one micromole of pNPA in one minute.

Row | Molecule | Specific activity of spray-dried enzyme powder [pNPA U/mg protein]
1 | T. maritima perhydrolase spray-dried enzyme powder: Spray-dried wild type acetyl xylan esterase from Thermotoga maritima, 27.8 wt % protein (protein, UniProt Q9WXT2 1-325, looked up, spray-dried powder, Spray-dried wild type acetyl xylan esterase from Thermotoga maritima, 27.8 wt % protein) Cephalosporin-C deacetylase: MAFFDLPLEELKKYRPERYEEKDFDEFWEETLAESEKFPLDPVFERMESHLKTVEAYDVTFSGYRGQRIKGWLLVPKLEEEKLPCVVQYIGYNGGRGFPHDWLFWPSMGYICFVMDTRGQGSGWLKGDTPDYPEGPVDPQYPGFMTRGILDPRTYYYRRVFTDAVRAVEAAASFPQVDQERIVIAGGSQGGGIALAVSALSKKAKALLCDVPFLCHFRRAVQLVDTHPYAEITNFLKTHRDKEEIVFRTLSYFDGVNFAARAKIPALFSVGLMDNICPPSTVFAAYNYYAGPKEIRIYPYNNHEGGGSFQAVEQVKFLKKLFEKG | 86.1
2 | T. maritima C277S perhydrolase spray-dried enzyme powder: Spray-dried T. maritima acetyl xylan esterase C277S mutant, 25.5 wt % protein (protein, UniProt Q9WXT2 1-325, looked up, variant C277S, spray-dried powder, Spray-dried T. maritima acetyl xylan esterase C277S mutant, 25.5 wt % protein) Cephalosporin-C deacetylase: MAFFDLPLEELKKYRPERYEEKDFDEFWEETLAESEKFPLDPVFERMESHLKTVEAYDVTFSGYRGQRIKGWLLVPKLEEEKLPCVVQYIGYNGGRGFPHDWLFWPSMGYICFVMDTRGQGSGWLKGDTPDYPEGPVDPQYPGFMTRGILDPRTYYYRRVFTDAVRAVEAAASFPQVDQERIVIAGGSQGGGIALAVSALSKKAKALLCDVPFLCHFRRAVQLVDTHPYAEITNFLKTHRDKEEIVFRTLSYFDGVNFAARAKIPALFSVGLMDNISPPSTVFAAYNYYAGPKEIRIYPYNNHEGGGSFQAVEQVKFLKKLFEKG | 129.5
